# Results: patent US20180155451A1 (published 2018)
# Target: T1, FcγRIa (human, UniProt P12314 16-292)
# T1 construct: extracellular domain; also called FcgRI; CD64
# Assay: SPR; vs GpH7-A5/GpH7-B3/GpL16-k0=100
# T1 sequence (P12314 16-292): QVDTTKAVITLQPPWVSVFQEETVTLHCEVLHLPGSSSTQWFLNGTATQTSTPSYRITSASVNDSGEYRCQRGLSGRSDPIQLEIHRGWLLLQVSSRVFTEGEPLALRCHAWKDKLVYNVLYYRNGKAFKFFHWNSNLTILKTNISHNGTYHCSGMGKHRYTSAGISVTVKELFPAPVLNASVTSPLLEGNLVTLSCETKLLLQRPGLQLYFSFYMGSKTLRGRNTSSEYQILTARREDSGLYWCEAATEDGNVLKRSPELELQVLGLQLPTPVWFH
row,Binder,He/Con_1a
1,"GpH7-A5/GpH7-B3 variant E269_04F/GpL16-k0 (antibody, human IgG1, kappa, heterodimerized; also called He Ab E269_04F) heavy 1: not shown heavy 2: not shown light: DIVMTQSPLSLPVTPGEPASISCQASESLVHSNRNTYLHWYLQKPGQSPQLLIYKVSNRFSGVPDRFSGSGSGTDFTLKISRVEAEDVGVYYCSQNTHVPPTFGQGTKVEIERTVAAPSVFIFPPSDEQLKSGTASVVCLLNNFYPREAKVQWKVDNALQSGNSQESVTEQDSKDSTYSLSSTLTLSKADYEKHKVYACEVTHQGLSSPVTKSFNRGEC",103 % of control
2,"GpH7-A5/GpH7-B3 variant A327_06M/GpL16-k0 (antibody, human IgG1, kappa, heterodimerized; also called He Ab A327_06M) heavy 1: not shown heavy 2: not shown light: DIVMTQSPLSLPVTPGEPASISCQASESLVHSNRNTYLHWYLQKPGQSPQLLIYKVSNRFSGVPDRFSGSGSGTDFTLKISRVEAEDVGVYYCSQNTHVPPTFGQGTKVEIERTVAAPSVFIFPPSDEQLKSGTASVVCLLNNFYPREAKVQWKVDNALQSGNSQESVTEQDSKDSTYSLSSTLTLSKADYEKHKVYACEVTHQGLSSPVTKSFNRGEC",103 % of control
3,"GpH7-A5/GpH7-B3 variant A330_16H/GpL16-k0 (antibody, human IgG1, kappa, heterodimerized; also called He Ab A330_16H) heavy 1: not shown heavy 2: not shown light: DIVMTQSPLSLPVTPGEPASISCQASESLVHSNRNTYLHWYLQKPGQSPQLLIYKVSNRFSGVPDRFSGSGSGTDFTLKISRVEAEDVGVYYCSQNTHVPPTFGQGTKVEIERTVAAPSVFIFPPSDEQLKSGTASVVCLLNNFYPREAKVQWKVDNALQSGNSQESVTEQDSKDSTYSLSSTLTLSKADYEKHKVYACEVTHQGLSSPVTKSFNRGEC",106 % of control
4,"GpH7-A5/GpH7-B3 variant E269_07I/GpL16-k0 (antibody, human IgG1, kappa, heterodimerized; also called He Ab E269_07I) heavy 1: not shown heavy 2: not shown light: DIVMTQSPLSLPVTPGEPASISCQASESLVHSNRNTYLHWYLQKPGQSPQLLIYKVSNRFSGVPDRFSGSGSGTDFTLKISRVEAEDVGVYYCSQNTHVPPTFGQGTKVEIERTVAAPSVFIFPPSDEQLKSGTASVVCLLNNFYPREAKVQWKVDNALQSGNSQESVTEQDSKDSTYSLSSTLTLSKADYEKHKVYACEVTHQGLSSPVTKSFNRGEC",103 % of control
5,"GpH7-A5/GpH7-B3 variant A327_03V/GpL16-k0 (antibody, human IgG1, kappa, heterodimerized; also called He Ab A327_03V) heavy 1: not shown heavy 2: not shown light: DIVMTQSPLSLPVTPGEPASISCQASESLVHSNRNTYLHWYLQKPGQSPQLLIYKVSNRFSGVPDRFSGSGSGTDFTLKISRVEAEDVGVYYCSQNTHVPPTFGQGTKVEIERTVAAPSVFIFPPSDEQLKSGTASVVCLLNNFYPREAKVQWKVDNALQSGNSQESVTEQDSKDSTYSLSSTLTLSKADYEKHKVYACEVTHQGLSSPVTKSFNRGEC",103 % of control
6,"GpH7-A5/GpH7-B3 variant E269_02A/GpL16-k0 (antibody, human IgG1, kappa, heterodimerized; also called He Ab E269_02A) heavy 1: not shown heavy 2: not shown light: DIVMTQSPLSLPVTPGEPASISCQASESLVHSNRNTYLHWYLQKPGQSPQLLIYKVSNRFSGVPDRFSGSGSGTDFTLKISRVEAEDVGVYYCSQNTHVPPTFGQGTKVEIERTVAAPSVFIFPPSDEQLKSGTASVVCLLNNFYPREAKVQWKVDNALQSGNSQESVTEQDSKDSTYSLSSTLTLSKADYEKHKVYACEVTHQGLSSPVTKSFNRGEC",104 % of control
7,"GpH7-A5/GpH7-B3 variant E269_13S/GpL16-k0 (antibody, human IgG1, kappa, heterodimerized; also called He Ab E269_13S) heavy 1: not shown heavy 2: not shown light: DIVMTQSPLSLPVTPGEPASISCQASESLVHSNRNTYLHWYLQKPGQSPQLLIYKVSNRFSGVPDRFSGSGSGTDFTLKISRVEAEDVGVYYCSQNTHVPPTFGQGTKVEIERTVAAPSVFIFPPSDEQLKSGTASVVCLLNNFYPREAKVQWKVDNALQSGNSQESVTEQDSKDSTYSLSSTLTLSKADYEKHKVYACEVTHQGLSSPVTKSFNRGEC",103 % of control
8,"GpH7-A5/GpH7-B3 variant E269_08L/GpL16-k0 (antibody, human IgG1, kappa, heterodimerized; also called He Ab E269_08L) heavy 1: not shown heavy 2: not shown light: DIVMTQSPLSLPVTPGEPASISCQASESLVHSNRNTYLHWYLQKPGQSPQLLIYKVSNRFSGVPDRFSGSGSGTDFTLKISRVEAEDVGVYYCSQNTHVPPTFGQGTKVEIERTVAAPSVFIFPPSDEQLKSGTASVVCLLNNFYPREAKVQWKVDNALQSGNSQESVTEQDSKDSTYSLSSTLTLSKADYEKHKVYACEVTHQGLSSPVTKSFNRGEC",104 % of control
9,"GpH7-A5/GpH7-B3 variant A330_11K/GpL16-k0 (antibody, human IgG1, kappa, heterodimerized; also called He Ab A330_11K) heavy 1: not shown heavy 2: not shown light: DIVMTQSPLSLPVTPGEPASISCQASESLVHSNRNTYLHWYLQKPGQSPQLLIYKVSNRFSGVPDRFSGSGSGTDFTLKISRVEAEDVGVYYCSQNTHVPPTFGQGTKVEIERTVAAPSVFIFPPSDEQLKSGTASVVCLLNNFYPREAKVQWKVDNALQSGNSQESVTEQDSKDSTYSLSSTLTLSKADYEKHKVYACEVTHQGLSSPVTKSFNRGEC",103 % of control
10,"GpH7-A5/GpH7-B3 variant E269_05P/GpL16-k0 (antibody, human IgG1, kappa, heterodimerized; also called He Ab E269_05P) heavy 1: not shown heavy 2: not shown light: DIVMTQSPLSLPVTPGEPASISCQASESLVHSNRNTYLHWYLQKPGQSPQLLIYKVSNRFSGVPDRFSGSGSGTDFTLKISRVEAEDVGVYYCSQNTHVPPTFGQGTKVEIERTVAAPSVFIFPPSDEQLKSGTASVVCLLNNFYPREAKVQWKVDNALQSGNSQESVTEQDSKDSTYSLSSTLTLSKADYEKHKVYACEVTHQGLSSPVTKSFNRGEC",102 % of control
11,"GpH7-A5/GpH7-B3 variant A327_09D/GpL16-k0 (antibody, human IgG1, kappa, heterodimerized; also called He Ab A327_09D) heavy 1: not shown heavy 2: not shown light: DIVMTQSPLSLPVTPGEPASISCQASESLVHSNRNTYLHWYLQKPGQSPQLLIYKVSNRFSGVPDRFSGSGSGTDFTLKISRVEAEDVGVYYCSQNTHVPPTFGQGTKVEIERTVAAPSVFIFPPSDEQLKSGTASVVCLLNNFYPREAKVQWKVDNALQSGNSQESVTEQDSKDSTYSLSSTLTLSKADYEKHKVYACEVTHQGLSSPVTKSFNRGEC",103 % of control
12,"GpH7-A5/GpH7-B3 variant A327_13S/GpL16-k0 (antibody, human IgG1, kappa, heterodimerized; also called He Ab A327_13S) heavy 1: not shown heavy 2: not shown light: DIVMTQSPLSLPVTPGEPASISCQASESLVHSNRNTYLHWYLQKPGQSPQLLIYKVSNRFSGVPDRFSGSGSGTDFTLKISRVEAEDVGVYYCSQNTHVPPTFGQGTKVEIERTVAAPSVFIFPPSDEQLKSGTASVVCLLNNFYPREAKVQWKVDNALQSGNSQESVTEQDSKDSTYSLSSTLTLSKADYEKHKVYACEVTHQGLSSPVTKSFNRGEC",102 % of control
13,"GpH7-A5/GpH7-B3 variant A330_08L/GpL16-k0 (antibody, human IgG1, kappa, heterodimerized; also called He Ab A330_08L; GpH7-A5/GpH7-B3-20-08L/GpL16-k0) heavy 1: not shown heavy 2: not shown light: DIVMTQSPLSLPVTPGEPASISCQASESLVHSNRNTYLHWYLQKPGQSPQLLIYKVSNRFSGVPDRFSGSGSGTDFTLKISRVEAEDVGVYYCSQNTHVPPTFGQGTKVEIERTVAAPSVFIFPPSDEQLKSGTASVVCLLNNFYPREAKVQWKVDNALQSGNSQESVTEQDSKDSTYSLSSTLTLSKADYEKHKVYACEVTHQGLSSPVTKSFNRGEC",107 % of control
14,"GpH7-A5/GpH7-B3 variant E269_03V/GpL16-k0 (antibody, human IgG1, kappa, heterodimerized; also called He Ab E269_03V) heavy 1: not shown heavy 2: not shown light: DIVMTQSPLSLPVTPGEPASISCQASESLVHSNRNTYLHWYLQKPGQSPQLLIYKVSNRFSGVPDRFSGSGSGTDFTLKISRVEAEDVGVYYCSQNTHVPPTFGQGTKVEIERTVAAPSVFIFPPSDEQLKSGTASVVCLLNNFYPREAKVQWKVDNALQSGNSQESVTEQDSKDSTYSLSSTLTLSKADYEKHKVYACEVTHQGLSSPVTKSFNRGEC",103 % of control
15,"GpH7-A5/GpH7-B3 variant A330_14T/GpL16-k0 (antibody, human IgG1, kappa, heterodimerized; also called He Ab A330_14T) heavy 1: not shown heavy 2: not shown light: DIVMTQSPLSLPVTPGEPASISCQASESLVHSNRNTYLHWYLQKPGQSPQLLIYKVSNRFSGVPDRFSGSGSGTDFTLKISRVEAEDVGVYYCSQNTHVPPTFGQGTKVEIERTVAAPSVFIFPPSDEQLKSGTASVVCLLNNFYPREAKVQWKVDNALQSGNSQESVTEQDSKDSTYSLSSTLTLSKADYEKHKVYACEVTHQGLSSPVTKSFNRGEC",105 % of control
16,"GpH7-A5/GpH7-B3 variant A327_10E/GpL16-k0 (antibody, human IgG1, kappa, heterodimerized; also called He Ab A327_10E) heavy 1: not shown heavy 2: not shown light: DIVMTQSPLSLPVTPGEPASISCQASESLVHSNRNTYLHWYLQKPGQSPQLLIYKVSNRFSGVPDRFSGSGSGTDFTLKISRVEAEDVGVYYCSQNTHVPPTFGQGTKVEIERTVAAPSVFIFPPSDEQLKSGTASVVCLLNNFYPREAKVQWKVDNALQSGNSQESVTEQDSKDSTYSLSSTLTLSKADYEKHKVYACEVTHQGLSSPVTKSFNRGEC",103 % of control
17,"GpH7-A5/GpH7-B3 variant E269_06M/GpL16-k0 (antibody, human IgG1, kappa, heterodimerized; also called He Ab E269_06M) heavy 1: not shown heavy 2: not shown light: DIVMTQSPLSLPVTPGEPASISCQASESLVHSNRNTYLHWYLQKPGQSPQLLIYKVSNRFSGVPDRFSGSGSGTDFTLKISRVEAEDVGVYYCSQNTHVPPTFGQGTKVEIERTVAAPSVFIFPPSDEQLKSGTASVVCLLNNFYPREAKVQWKVDNALQSGNSQESVTEQDSKDSTYSLSSTLTLSKADYEKHKVYACEVTHQGLSSPVTKSFNRGEC",104 % of control
18,"GpH7-A5/GpH7-B3 variant E269_01G/GpL16-k0 (antibody, human IgG1, kappa, heterodimerized; also called He Ab E269_01G) heavy 1: not shown heavy 2: not shown light: DIVMTQSPLSLPVTPGEPASISCQASESLVHSNRNTYLHWYLQKPGQSPQLLIYKVSNRFSGVPDRFSGSGSGTDFTLKISRVEAEDVGVYYCSQNTHVPPTFGQGTKVEIERTVAAPSVFIFPPSDEQLKSGTASVVCLLNNFYPREAKVQWKVDNALQSGNSQESVTEQDSKDSTYSLSSTLTLSKADYEKHKVYACEVTHQGLSSPVTKSFNRGEC",104 % of control
19,"GpH7-A5/GpH7-B3 variant A330_09D/GpL16-k0 (antibody, human IgG1, kappa, heterodimerized; also called He Ab A330_09D) heavy 1: not shown heavy 2: not shown light: DIVMTQSPLSLPVTPGEPASISCQASESLVHSNRNTYLHWYLQKPGQSPQLLIYKVSNRFSGVPDRFSGSGSGTDFTLKISRVEAEDVGVYYCSQNTHVPPTFGQGTKVEIERTVAAPSVFIFPPSDEQLKSGTASVVCLLNNFYPREAKVQWKVDNALQSGNSQESVTEQDSKDSTYSLSSTLTLSKADYEKHKVYACEVTHQGLSSPVTKSFNRGEC",109 % of control
20,"GpH7-A5/GpH7-B3 variant A330_05P/GpL16-k0 (antibody, human IgG1, kappa, heterodimerized; also called He Ab A330_05P) heavy 1: not shown heavy 2: not shown light: DIVMTQSPLSLPVTPGEPASISCQASESLVHSNRNTYLHWYLQKPGQSPQLLIYKVSNRFSGVPDRFSGSGSGTDFTLKISRVEAEDVGVYYCSQNTHVPPTFGQGTKVEIERTVAAPSVFIFPPSDEQLKSGTASVVCLLNNFYPREAKVQWKVDNALQSGNSQESVTEQDSKDSTYSLSSTLTLSKADYEKHKVYACEVTHQGLSSPVTKSFNRGEC",101 % of control
21,"GpH7-A5/GpH7-B3 variant A327_07I/GpL16-k0 (antibody, human IgG1, kappa, heterodimerized; also called He Ab A327_07I) heavy 1: not shown heavy 2: not shown light: DIVMTQSPLSLPVTPGEPASISCQASESLVHSNRNTYLHWYLQKPGQSPQLLIYKVSNRFSGVPDRFSGSGSGTDFTLKISRVEAEDVGVYYCSQNTHVPPTFGQGTKVEIERTVAAPSVFIFPPSDEQLKSGTASVVCLLNNFYPREAKVQWKVDNALQSGNSQESVTEQDSKDSTYSLSSTLTLSKADYEKHKVYACEVTHQGLSSPVTKSFNRGEC",104 % of control
22,"GpH7-A5/GpH7-B3 variant E269_09D/GpL16-k0 (antibody, human IgG1, kappa, heterodimerized; also called He Ab E269_09D) heavy 1: not shown heavy 2: not shown light: DIVMTQSPLSLPVTPGEPASISCQASESLVHSNRNTYLHWYLQKPGQSPQLLIYKVSNRFSGVPDRFSGSGSGTDFTLKISRVEAEDVGVYYCSQNTHVPPTFGQGTKVEIERTVAAPSVFIFPPSDEQLKSGTASVVCLLNNFYPREAKVQWKVDNALQSGNSQESVTEQDSKDSTYSLSSTLTLSKADYEKHKVYACEVTHQGLSSPVTKSFNRGEC",107 % of control
